Consider one molecule from patent US20090263894A1 (AbbVie / Abbott, published 2009).

For assay [1], the target named is T1, wild-type NGAL antigen displayed on yeast (AGA2 fusion) (human, UniProt P80188 21-198).
T1 construct: also called WT
As to the kind of experiment: flow cytometry titration of the mAb on yeast displaying the NGAL antigen, detection with GaM-PE, fractional binding.

Assay [2] has as its target T2, NGAL rAg A119G displayed on yeast (human, UniProt P80188 21-198).
T2 construct: Yeast display AGA2 fusion as m5
T2 chain: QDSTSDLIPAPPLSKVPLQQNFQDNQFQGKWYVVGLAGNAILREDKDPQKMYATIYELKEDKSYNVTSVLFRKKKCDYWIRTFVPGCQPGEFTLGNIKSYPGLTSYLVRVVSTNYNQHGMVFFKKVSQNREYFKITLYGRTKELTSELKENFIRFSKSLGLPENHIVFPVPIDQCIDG
Described as above.

B1: anti-NGAL monoclonal antibody 1-2322-455 (antibody, V domains shown)
VH: EVQLVESGGGLVQPGGSLKLSCAASGFTFNNYYMSWVRQTPERRLEWVAYISSSGGSTYYSDSVRGRFTISRDTARNTLYLQMTSLKSEDTAMYYCARHFGDYSYFDYWGQGTTLTVSS
VL: DIQMTQSPASLSASVGETVTITCRASENFYSYLAWYQQKQGKSPQLLVYNAKTLAEGVPSRFSGSGSGTQFSLKINSLQPEDFGTYYCQHHYDIPLTFGAGTKLELKR
On to B1, for which the “EC50 (read off the curve)” value in assay [1] is around 6 pM; in assay [2], around 7 pM.
